Reference: patent US20190142860A1, “NUCLEIC ACID BASED TIA-1 INHIBITORS” (Aquinnah Pharmaceuticals, Inc., priority 2015, published 2019)

Key:
[1] = target: Nucleolysin TIA-1 (endogenous mouse TIA1) (mouse) (UniProt P52912); assay: TIA1 IP-MS, WT1 cortex
[2] = target: Nucleolysin TIA-1 (endogenous mouse TIA1) (mouse) (UniProt P52912); assay: TIA1 IP-MS, WT2 cortex
[3] = target: Nucleolysin TIA-1 (endogenous mouse TIA1) (mouse) (UniProt P52912); assay: TIA1 IP-MS, WT3 cortex
[4] = target: Nucleolysin TIA-1 (endogenous mouse TIA1) (mouse) (UniProt P52912); assay: TIA1 IP-MS, tau KO 1 cortex
[5] = target: Nucleolysin TIA-1 (endogenous mouse TIA1) (mouse) (UniProt P52912); assay: TIA1 IP-MS, tau KO 2 cortex
[6] = target: Nucleolysin TIA-1 (endogenous mouse TIA1) (mouse) (UniProt P52912); assay: TIA1 IP-MS, tau KO 3 cortex

UniProt P52912, sequence (P52912 whole entry): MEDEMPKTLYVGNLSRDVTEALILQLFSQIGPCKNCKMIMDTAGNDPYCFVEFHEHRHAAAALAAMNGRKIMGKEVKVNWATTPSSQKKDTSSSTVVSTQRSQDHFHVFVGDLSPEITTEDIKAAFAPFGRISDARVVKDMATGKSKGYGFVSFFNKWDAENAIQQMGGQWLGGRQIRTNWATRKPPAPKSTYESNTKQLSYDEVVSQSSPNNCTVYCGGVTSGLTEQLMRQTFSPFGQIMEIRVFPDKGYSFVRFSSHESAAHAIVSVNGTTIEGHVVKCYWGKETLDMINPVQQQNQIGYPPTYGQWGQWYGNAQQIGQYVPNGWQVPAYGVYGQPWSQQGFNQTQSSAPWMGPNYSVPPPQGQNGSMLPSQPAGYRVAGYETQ

Row | Substance | total ion current (normalized to TIA1 = 1000) [1] | total ion current (normalized to TIA1 = 1000) [2] | total ion current (normalized to TIA1 = 1000) [3] | total ion current (normalized to TIA1 = 1000) [4] | total ion current (normalized to TIA1 = 1000) [5] | total ion current (normalized to TIA1 = 1000) [6]
1 | Ras-related protein Rab-5A (from UniProt Q9CQD1 1-215) | 0 | 126 | 302 | 0 | 185 | 0
2 | Isoform 2 of Sarcoplasmic/endoplasmic reticulum calcium ATPase 2 (from UniProt O55143 1-998) | 0 | 36.6 | 0 | 0 | 21.5 | 0
3 | Isoform Mt-VDAC1 of Voltage-dependent anion-selective channel protein 1 (from UniProt Q60932 2-283) | 0 | 184 | 101 | 0 | 0 | 0
4 | Septin-5 (from UniProt Q9Z2Q6 1-369) | 0 | 194 | 114 | 0 | 85.5 | 0
5 | Transcriptional activator protein Pur-alpha (from UniProt P42669 2-321) | 0 | 264 | 269 | 0 | 39.7 | 0
6 | Fructose-bisphosphate aldolase C (from UniProt P05063 2-363) | 0 | 69.5 | 41.6 | 0 | 43.2 | 0
7 | Tripartite motif-containing protein 2 (from UniProt Q9ESN6 1-744) | 0 | 106 | 0 | 0 | 0 | 0
8 | Phytanoyl-CoA hydroxylase-interacting protein (from UniProt Q8K0S0 1-330) | 0 | 17.1 | 0 | 0 | 54.7 | 0

Second part, the substance after the results:

Row | total ion current (normalized to TIA1 = 1000) [1] | total ion current (normalized to TIA1 = 1000) [2] | total ion current (normalized to TIA1 = 1000) [3] | total ion current (normalized to TIA1 = 1000) [4] | total ion current (normalized to TIA1 = 1000) [5] | total ion current (normalized to TIA1 = 1000) [6] | Substance
9 | 0 | 128 | 68.8 | 0 | 186 | 0 | AP-2 complex subunit alpha-2 (from UniProt P17427 1-938)
10 | 0 | 440 | 171 | 0 | 292 | 0 | Prohibitin-2 (from UniProt O35129 2-299)
11 | 0 | 94.7 | 75.6 | 0 | 52.7 | 0 | Isoform 2 of Septin-4 (from UniProt P28661 1-459)
12 | 34.6 | 374 | 48.5 | 26.7 | 69.2 | 0 | Heterogeneous nuclear ribonucleoprotein R (from UniProt Q8VHM5 2-632)
13 | 0 | 159 | 68.8 | 0 | 248 | 0 | Isoform B of AP-2 complex subunit alpha-1 (from UniProt P17426 1-955)
14 | 0 | 108 | 240 | 0 | 13 | 0 | Isoform A1-I of V-type proton ATPase 116 kDa subunit a isoform 1 (from UniProt Q9Z1G4 1-838)
15 | 0 | 234 | 106 | 0 | 108 | 0 | Centromere protein V (from UniProt Q9CXS4 1-252)
16 | 0 | 0 | 218 | 0 | 97.8 | 0 | LanC-like protein 1 (from UniProt O89112 2-399)
17 | 0 | 41.6 | 0 | 0 | 0 | 0 | Serine/arginine-rich splicing factor 4 (from UniProt Q8VE97 1-489)
18 | 0 | 38.6 | 50.1 | 0 | 58.4 | 0 | Carbonic anhydrase 2 (from UniProt P00920 2-260)
19 | 3.65 | 136 | 79.5 | 99.4 | 24.6 | 0 | Serine/threonine-protein phosphatase PP1-beta catalytic subunit (from UniProt P62141 2-327)
20 | 0 | 40.4 | 0 | 17 | 0 | 0 | Rabphilin-3A (from UniProt P47708 1-681)
21 | 0 | 272 | 79.4 | 0 | 112 | 0 | Isoform 2 of 4-aminobutyrate aminotransferase, mitochondrial (from UniProt P61922 29-444)
